Assay results from US20190375820A1 (ACCELERON PHARMA, published 2019).

T1: activin C (UniProt P55103 237-352)
T1 sequence (looked up): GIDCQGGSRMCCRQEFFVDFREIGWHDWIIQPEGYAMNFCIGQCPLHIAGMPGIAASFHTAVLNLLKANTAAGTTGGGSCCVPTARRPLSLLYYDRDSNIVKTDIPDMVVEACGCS

T2: activin AC (UniProt P08476 311-426; P55103 237-352)
T2 sequence (looked up) 1: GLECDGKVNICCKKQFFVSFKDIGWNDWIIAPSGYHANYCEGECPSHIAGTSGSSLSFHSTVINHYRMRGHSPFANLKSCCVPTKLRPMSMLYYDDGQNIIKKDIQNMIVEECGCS
T2 sequence (looked up) 2: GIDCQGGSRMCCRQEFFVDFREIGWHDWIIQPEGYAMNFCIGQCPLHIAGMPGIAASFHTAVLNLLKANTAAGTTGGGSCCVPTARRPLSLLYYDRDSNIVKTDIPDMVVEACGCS


Legend:
activin C = target: T1, activin C; assay: SPR (Biacore); receptor-Fc captured via anti-Fc antibody, ligand injected
Experimental: (§1) Ligands were injected and allowed to flow over the captured receptor protein.

activin AC = target: T2, activin AC; assay: as above
Experimental: as §1

binding result (activin C) | Kd (activin AC) | koff (activin AC) | kon (activin AC) | Kd (activin C) | koff (activin C) | kon (activin C) | Binder
no binding |  |  |  |  |  |  | ALK7-Fc homodimer (Fc fusion, also called ALK7-Fc homodimeric complex; ALK7 homodimer; not shown: linker and Fc domain) LSPGLKCVCLLCDSSNFTCQTEGACWASVMLTNGKEQVIKSCVSLPELNAQVFCHSSNNVTKTECCFTDFCNNITLHLPTASPNAPKLGPME
 | 0.22 nM | 0.00057 s⁻¹ | 2.6e+06 M⁻¹ s⁻¹ | 6.9 nM | 0.0024 s⁻¹ | 350000 M⁻¹ s⁻¹ | ActRIIB-Fc:ALK7-Fc heterodimer (Fc fusion, The receptor parts are the same in both pairs; only the Fc domains differ; also called ALK7-Fc:ActRIIB-Fc heterodimer; ActRIIB-Fc:ALK7-Fc heterodimeric complex) chain 1: GRGEAETRECIYYNANWELERTNQSGLERCEGEQDKRLHCYASWRNSSGTIELVKKGCWLDDFNCYDRQECVATEENPQVYFCCCEGNFCNERFTHLPEAGGPEVTYEPPPTAPTGGGTHTCPPCPAPELLGGPSVFLFPPKPKDTLMISRTPEVTCVVVDVSHEDPEVKFNWYVDGVEVHNAKTKPREEQYNSTYRVVSVLTVLHQDWLNGKEYKCKVSNKALPAPIEKTISKAKGQPREPQVYTLPPSRKEMTKNQVSLTCLVKGFYPSDIAVEWESNGQPENNYKTTPPVLKSDGSFFLYSKLTVDKSRWQQGNVFSCSVMHEALHNHYTQKSLSLSPGK chain 2: GLKCVCLLCDSSNFTCQTEGACWASVMLTNGKEQVIKSCVSLPELNAQVFCHSSNNVTKTECCFTDFCNNITLHLPTASPNAPKLGPMETGGGTHTCPPCPAPELLGGPSVFLFPPKPKDTLMISRTPEVTCVVVDVSHEDPEVKFNWYVDGVEVHNAKTKPREEQYNSTYRVVSVLTVLHQDWLNGKEYKCKVSNKALPAPIEKTISKAKGQPREPQVYTLPPSREEMTKNQVSLTCLVKGFYPSDIAVEWESNGQPENNYDTTPPVLDSDGSFFLYSDLTVDKSRWQQGNVFSCSVMHEALHNHYTQKSLSLSPG
 | 0.16 nM | 0.0031 s⁻¹ | 2e+07 M⁻¹ s⁻¹ |  |  |  | ActRIIB-Fc homodimer (Fc fusion, also called ActRIIB-Fc homodimeric complex; ActRIIB homodimer; not shown: linker and Fc domain) SGRGEAETRECIYYNANWELERTNQSGLERCEGEQDKRLHCYASWRNSSGTIELVKKGCWLDDFNCYDRQECVATEENPQVYFCCCEGNFCNERFTHLPEAGGPEVTYEPPPTAPTLLT
